The target in assay [1] is T1, 金黄色葡萄球菌肠毒素B (SEB) (Staphylococcus aureus (ATCC BAA-1556), UniProt P01552 28-266).
For assay [2], the target named is T1, 金黄色葡萄球菌肠毒素B (SEB). In words: ELISA, antigen coated.

T1 sequence (P01552 28-266, tags left off): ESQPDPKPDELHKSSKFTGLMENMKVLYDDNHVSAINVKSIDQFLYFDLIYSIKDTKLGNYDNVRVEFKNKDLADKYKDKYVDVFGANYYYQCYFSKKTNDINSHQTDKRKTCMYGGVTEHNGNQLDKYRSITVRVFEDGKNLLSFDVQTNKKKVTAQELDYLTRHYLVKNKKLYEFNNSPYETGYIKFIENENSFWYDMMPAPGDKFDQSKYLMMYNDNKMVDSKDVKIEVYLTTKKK

B1: 全人源SEB单克隆抗体M0313 (antibody, V domains shown)
VH: EVQLVQSGGGLVQPGGSLRLSCAASGFTLSNYGMSWVRQSPGKGLEWVSGISGGSGSTCYADFVKGRFTISRDKSKNTLSLEMNSLRAEDRAVYYCAKDREYYNSGYYYFPYQYAMDVWGQGTTVTVSS
VL: QSVLTQPPSASGTPGQRVTISCSGGRPNIGGNSVYWYQQFPGTSPKLLIYTNDQRPSGVPDRFSGSKSGTSASLAISGLRSEDEADYYCAAWDDSLSAYVFGAGTKVTVL
As usually defined, the Kd is the free concentration of one partner at which half of the binding sites on the other are occupied at equilibrium, for simple one-to-one binding. A word on the koff: it is the rate constant with which the complex falls apart. Lower therefore signals a long-lived complex. As a reminder, the kon is the second-order rate constant of association. Lower therefore signals slow association. As a reminder, the EC50 is the concentration giving half of the maximal effect. As to B1, in the assay with 金黄色葡萄球菌肠毒素B (SEB) [1], the Kd came out at 3.22 nM, the koff turned out to be 0.00292 s⁻¹ and the kon was determined as 908000 M⁻¹ s⁻¹. In the assay with 金黄色葡萄球菌肠毒素B (SEB) [2], this molecule displayed an EC50 of 7.3 ng/mL.

The values above are taken from patent CN110498854A (UNIV ARMY MEDICAL, dated 2019).
